Reference: patent US8518892B2, “Methods to treat symptoms of pathophysiology related to body mass” (Board of Supervisors of Louisiana State University and …, priority 2005, dated 2013)

System: diet induced obese (DIO) C57BL/6J mice
Assay: Enho 1 ip for 3 days in diet induced obese C57BL/6J mice (Examples 19-21)
Assay type: in vivo, mouse
Protocol: (§1) The effect of Enho-1 upon weight loss was tested over the course of 3 days using diet induced obese (DIO) C57BL/6J mice (Jackson Laboratories, Bar Harbor, Me.). The mice were fed Research Diets 12492 (60% kJ/fat) for 12 weeks, resulting in obesity and moderate hyperglycemia in the animals. The mice were approximately 20-22 weeks of age and 30-50 g in weight at the start of the experiment. Fasting blood glucose was determined to be approximately 170-220 mg/dL. Six control mice received vehicle only while six test mice each received doses of either 90 nmol/kg/d, 900 nmol/kg/d or 9000 nmol/kg/d. The injections were given as 3 ip injections at 0600, 1400 and 2000 h on days 1 and 2; over the 3 day period, the mice received a total of 7 injections. All animals were euthanized 5 hours after the last injection given the morning of the third day. Food was removed after the final injection.
as §1, with “insulin and glucose” for “weight loss”
The HOMA-IR for each treatment was calculated using the following formula: ((glucose mg/dL÷18)×(insulin ng/ml×25.05))÷22.5
as §1, with “liver weight, liver lipid content and liver TG” for “weight loss”

[1] = 90 nmol/kg/d ip, listed as Enho-1
[2] = 900 nmol/kg/d ip, listed as Enho-1
[3] = 9000 nmol/kg/d ip, listed as Enho-1

B1: Enho 1: human Enho 1, a 76 amino acid peptide having the sequence SEQ ID NO: 14 (peptide, listed as Homo sapiens)
chain: MGAAISQGALIAIVCNGLVGFLLLLLWVILCWACHSRSADVDSLSESSPNSSPGPCPEKAPPPQKPSHEGSYLLQP
B1 was tested, and the Blood glucose (90 nmol/kg/d ip) was 204 mg/dL, the Delta body weight (90 nmol/kg/d ip) was 2.9% and the HOMA-IR (90 nmol/kg/d ip) was 50. For the same molecule, the “HOMA-IR decrease as compared to the control group” value (“HOMA-IR decrease” below) (90 nmol/kg/d ip) was 15%, the Insulin (90 nmol/kg/d ip) was 3.8 ng/mL and the “Liver TG” value (90 nmol/kg/d ip) was 57 mg/g. For the same molecule, the “Liver TG total” value (90 nmol/kg/d ip) was 86 mg/g, the Liver lipid (90 nmol/kg/d ip) was 126 mg/g and the Liver lipid total (90 nmol/kg/d ip) was 188 mg/g. For the same molecule, the Liver weight (90 nmol/kg/d ip) was 1.5 grams, the “Liver weight % body weight” value (90 nmol/kg/d ip) was 3.6% and the “Weight (pre-treatment)” value (90 nmol/kg/d ip) was 42.9 g. The “Weight (termination)” value (90 nmol/kg/d ip) was 41.7 g, the Blood glucose [1] was 204 ± 7 mg/dL and the HOMA-IR [1] was 50 ± 5. For the same molecule, the “HOMA-IR decrease” value [1] was “(↓ 15%)”, the Insulin [1] was 3.8 ± 0.4 ng/mL and the “Liver TG” value [1] was 57 ± 8 mg/g. For the same molecule, the “Liver TG total” value [1] was 86 ± 14 mg/g, the Liver lipid [1] was 126 ± 8 mg/g and the Liver lipid total [1] was 188 ± 13 mg/g. The Liver weight [1] was 1.5 ± 0.0 grams, the “Liver weight % body weight” value [1] was 3.6 ± 0.1% and the “Weight (pre-treatment)” value [1] was 42.9 ± 1.2 g. For the same molecule, the “Weight (termination)” value [1] was 41.7 ± 0.9 g, the Delta body weight (900 nmol/kg/d ip) was 3.5% and the HOMA-IR (900 nmol/kg/d ip) was 42. For the same molecule, the Insulin (900 nmol/kg/d ip) was 4.2 ng/mL, the “Liver TG” value (900 nmol/kg/d ip) was 48 mg/g and the “Liver TG total” value (900 nmol/kg/d ip) was 66 mg/g. For the same molecule, the Liver lipid (900 nmol/kg/d ip) was 137 mg/g, the Liver lipid total (900 nmol/kg/d ip) was 226 mg/g and the Liver weight (900 nmol/kg/d ip) was 1.5 grams. For the same molecule, the “Liver weight % body weight” value (900 nmol/kg/d ip) was 3.5%, the “Weight (pre-treatment)” value (900 nmol/kg/d ip) was 42.8 g and the “Weight (termination)” value (900 nmol/kg/d ip) was 41.3 g. The “blood glucose levels decrease” value (900 nmol/kg/d ip) was “approximately 15%”, the insulin levels reduction (900 nmol/kg/d ip) was “about 14%” and the Blood glucose (900 nmol/kg/d ip, P < 0.05 vs 90) was 166 mg/dL. For the same molecule, the Blood glucose (900 nmol/kg/d ip, P < 0.05 vs 90, listed as Enho-1) was 166 ± 13 mg/dL, the HOMA-IR [2] was 42 ± 3 and the Insulin [2] was 4.2 ± 0.5 ng/mL. The “Liver TG” value [2] was 48 ± 12 mg/g, the “Liver TG total” value [2] was 66 ± 14 mg/g and the Liver lipid [2] was 137 ± 34 mg/g. The Liver lipid total [2] was 226 ± 77 mg/g, the Liver weight [2] was 1.5 ± 0.2 grams and the “Liver weight % body weight” value [2] was 3.5 ± 0.2%. The “Weight (pre-treatment)” value [2] was 42.8 ± 2.9 g, the “Weight (termination)” value [2] was 41.3 ± 2.7 g and the “HOMA-IR decrease” value (900 nmol/kg/d ip, p<0.02) was 29%. The “HOMA-IR decrease” value (900 nmol/kg/d ip, p<0.02, listed as Enho-1) was “(↓ 29%)”, the Blood glucose (9000 nmol/kg/d ip) was 198 mg/dL and the Delta body weight (9000 nmol/kg/d ip) was 4.1%. The HOMA-IR (9000 nmol/kg/d ip) was 52, the “HOMA-IR decrease” value (9000 nmol/kg/d ip) was 12% and the Insulin (9000 nmol/kg/d ip) was 4.2 ng/mL. For the same molecule, the “Liver TG” value (9000 nmol/kg/d ip) was 47 mg/g, the “Liver TG total” value (9000 nmol/kg/d ip) was 63 mg/g and the Liver lipid (9000 nmol/kg/d ip) was 139 mg/g. For the same molecule, the Liver lipid total (9000 nmol/kg/d ip) was 230 mg/g, the Liver weight (9000 nmol/kg/d ip) was 1.4 grams and the “Liver weight % body weight” value (9000 nmol/kg/d ip) was 3.4%. The “Weight (pre-treatment)” value (9000 nmol/kg/d ip) was 42.7 g, the “Weight (termination)” value (9000 nmol/kg/d ip) was 40.9 g and the “liver TG reduction as compared to the control group” value (9000 nmol/kg/d ip) was 18-19%. The Blood glucose [3] was 198 ± 9 mg/dL, the HOMA-IR [3] was 52 ± 4 and the “HOMA-IR decrease” value [3] was “(↓ 12%)”. For the same molecule, the Insulin [3] was 4.2 ± 0.3 ng/mL, the “Liver TG” value [3] was 47 ± 9 mg/g and the “Liver TG total” value [3] was 63 ± 10 mg/g. For the same molecule, the Liver lipid [3] was 139 ± 42 mg/g, the Liver lipid total [3] was 230 ± 96 mg/g and the Liver weight [3] was 1.4 ± 0.2 grams. The “Liver weight % body weight” value [3] was 3.4 ± 0.3%, the “Weight (pre-treatment)” value [3] was 42.7 ± 1.6 g and the “Weight (termination)” value [3] was 40.9 ± 1.6 g. For the same molecule, the “serum TG reduction as compared to the control group” value (9000 nmol/kg/d ip, p<0.05, 1-tailed t-test) was 20%.
